Test results from the supplement of paper PMC10567573.

B1: PRKX (parent)
chain: KLLVVDRTRRLGNMKNGANDVKHH
B2: SLC2A12 (parent)
chain: TRIMIGLTLVFFVQITGQPNILFY

Variants of: B1
Test: protein stability index of a GFP-peptide fusion (GPS, HEK-293T) (PSI 1-6); higher = more stable
Conditions: c terminus: a fixed tail appended
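Note: lentivirally expressed fusions sorted by FACS into six bins by GFP to DsRed ratio, PSI derived from sequencing read proportions per bin multiplied by bin number.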

Row | Variant | protein stability index
1 | KRLVVDRTRRLGNMKNGANDVKHH [L2R] | 3.69
2 | KALVVDRTRRLGNMKNGANDVKHH [L2A] | 3.84
3 | KCLVVDRTRRLGNMKNGANDVKHH [L2C] | 3.57
4 | KILVVDRTRRLGNMKNGANDVKHH [L2I] | 2.99
5 | KELVVDRTRRLGNMKNGANDVKHH [L2E] | 5.03
6 | KSLVVDRTRRLGNMKNGANDVKHH [L2S] | 4.13
7 | KPLVVDRTRRLGNMKNGANDVKHH [L2P] | 4.29
8 | KYLVVDRTRRLGNMKNGANDVKHH [L2Y] | 3.04
9 | KTLVVDRTRRLGNMKNGANDVKHH [L2T] | 3.61
10 | KWLVVDRTRRLGNMKNGANDVKHH [L2W] | 2.87
11 | KNLVVDRTRRLGNMKNGANDVKHH [L2N] | 4.03
12 | KDLVVDRTRRLGNMKNGANDVKHH [L2D] | 4.03
13 | KGLVVDRTRRLGNMKNGANDVKHH [L2G] | 4.1
14 | KFLVVDRTRRLGNMKNGANDVKHH [L2F] | 3.22
15 | KMLVVDRTRRLGNMKNGANDVKHH [L2M] | 3.5
16 | KHLVVDRTRRLGNMKNGANDVKHH [L2H] | 3.68
17 | KVLVVDRTRRLGNMKNGANDVKHH [L2V] | 3.52
18 | KQLVVDRTRRLGNMKNGANDVKHH [L2Q] | 4.39
19 | KKLVVDRTRRLGNMKNGANDVKHH [L2K] | 3.99
20 | KLQVVDRTRRLGNMKNGANDVKHH [L3Q] | 3.68
21 | KLEVVDRTRRLGNMKNGANDVKHH [L3E] | 4.33
22 | KLTVVDRTRRLGNMKNGANDVKHH [L3T] | 4.16
23 | KLRVVDRTRRLGNMKNGANDVKHH [L3R] | 3.87

Row | Variant | protein stability index
24 | KLWVVDRTRRLGNMKNGANDVKHH [L3W] | 3.29
25 | KLPVVDRTRRLGNMKNGANDVKHH [L3P] | 3.72
26 | KLHVVDRTRRLGNMKNGANDVKHH [L3H] | 4
27 | KLYVVDRTRRLGNMKNGANDVKHH [L3Y] | 2.69
28 | KLGVVDRTRRLGNMKNGANDVKHH [L3G] | 3.93
29 | KLIVVDRTRRLGNMKNGANDVKHH [L3I] | 3.31
30 | KLAVVDRTRRLGNMKNGANDVKHH [L3A] | 3.92
31 | KLSVVDRTRRLGNMKNGANDVKHH [L3S] | 4.29
32 | KLVVVDRTRRLGNMKNGANDVKHH [L3V] | 2.86
33 | KLMVVDRTRRLGNMKNGANDVKHH [L3M] | 3.66
34 | KLDVVDRTRRLGNMKNGANDVKHH [L3D] | 4.38
35 | KLCVVDRTRRLGNMKNGANDVKHH [L3C] | 3.74
36 | KLNVVDRTRRLGNMKNGANDVKHH [L3N] | 3.62
37 | KLKVVDRTRRLGNMKNGANDVKHH [L3K] | 3.55
38 | KLFVVDRTRRLGNMKNGANDVKHH [L3F] | 2.72
39 | PLLVVDRTRRLGNMKNGANDVKHH [K1P] | 3.63
40 | SLLVVDRTRRLGNMKNGANDVKHH [K1S] | 3.51
41 | ALLVVDRTRRLGNMKNGANDVKHH [K1A] | 2.33
42 | RLLVVDRTRRLGNMKNGANDVKHH [K1R] | 2.52
43 | NLLVVDRTRRLGNMKNGANDVKHH [K1N] | 3.45
44 | TLLVVDRTRRLGNMKNGANDVKHH [K1T] | 3.45
45 | YLLVVDRTRRLGNMKNGANDVKHH [K1Y] | 2.29
46 | HLLVVDRTRRLGNMKNGANDVKHH [K1H] | 2.98

Row | Variant | protein stability index
47 | FLLVVDRTRRLGNMKNGANDVKHH [K1F] | 1.44
48 | ILLVVDRTRRLGNMKNGANDVKHH [K1I] | 1.78
49 | CLLVVDRTRRLGNMKNGANDVKHH [K1C] | 1.85
50 | QLLVVDRTRRLGNMKNGANDVKHH [K1Q] | 3.37
51 | WLLVVDRTRRLGNMKNGANDVKHH [K1W] | 1.55
52 | MLLVVDRTRRLGNMKNGANDVKHH [K1M] | 1.85
53 | ELLVVDRTRRLGNMKNGANDVKHH [K1E] | 2.94
54 | DLLVVDRTRRLGNMKNGANDVKHH [K1D] | 3.82
55 | VLLVVDRTRRLGNMKNGANDVKHH [K1V] | 1.82
56 | GLLVVDRTRRLGNMKNGANDVKHH [K1G] | 3.38
57 | LLLVVDRTRRLGNMKNGANDVKHH [K1L] | 1.86
58 | KLLAVDRTRRLGNMKNGANDVKHH [V4A] | 3.31
59 | KLLHVDRTRRLGNMKNGANDVKHH [V4H] | 3.62
60 | KLLKVDRTRRLGNMKNGANDVKHH [V4K] | 2.7
61 | KLLFVDRTRRLGNMKNGANDVKHH [V4F] | 2.61
62 | KLLDVDRTRRLGNMKNGANDVKHH [V4D] | 3.77
63 | KLLLVDRTRRLGNMKNGANDVKHH [V4L] | 3
64 | KLLIVDRTRRLGNMKNGANDVKHH [V4I] | 2.46
65 | KLLEVDRTRRLGNMKNGANDVKHH [V4E] | 3.46
66 | KLLCVDRTRRLGNMKNGANDVKHH [V4C] | 3.17
67 | KLLGVDRTRRLGNMKNGANDVKHH [V4G] | 3.32

Variants of: B2
Test: as above
Conditions: c terminus: a fixed tail appended

Row | Variant | protein stability index
68 | TRIMIGLTLVFFVQITGQPNILMY [F23M] | 2.94
69 | TRIMIGLTLVFFVQITGQPNILPY [F23P] | 3.99
70 | TRIMIGLTLVFFVQITGQPNILKY [F23K] | 3.29
71 | TRIMIGLTLVFFVQITGQPNILVY [F23V] | 2.56
72 | TRIMIGLTLVFFVQITGQPNILIY [F23I] | 3.73
73 | TRIMIGLTLVFFVQITPQPNILFY [G17P] | 3.68
74 | TRIMIGLTLVFFVQITLQPNILFY [G17L] | 2.86
75 | TRIMIGLTLVFFVQITMQPNILFY [G17M] | 3.31
76 | TRIMIGLTLVFFVQITQQPNILFY [G17Q] | 2.8
77 | TRIMIGLTLVFFVQITWQPNILFY [G17W] | 2.11
78 | TRIMIGLTLVFFVQITNQPNILFY [G17N] | 3.03
79 | TRIMIGLTLVFFVQITGQPQILFY [N20Q] | 2.61
80 | TRIMIGLTLVFFVQITGQPIILFY [N20I] | 2.48
81 | TRIMIGLTLVFFVQITGQPPILFY [N20P] | 3.22
82 | TRIMIGLTLVFFVQITGQPEILFY [N20E] | 2.12
83 | TRIMIGLTLVFFVQITGQPCILFY [N20C] | 3.04
84 | TRIMIGLHLVFFVQITGQPNILFY [T8H] | 4.12
85 | TRIMIGLSLVFFVQITGQPNILFY [T8S] | 2.71
86 | TRIMIGLVLVFFVQITGQPNILFY [T8V] | 3.33
87 | TRIMIGLMLVFFVQITGQPNILFY [T8M] | 3.52
88 | TRIMIGLFLVFFVQITGQPNILFY [T8F] | 2.26
89 | TRIMIGLILVFFVQITGQPNILFY [T8I] | 2.72
90 | TRIMIGLTLVFFVQITGEPNILFY [Q18E] | 4.17
91 | TRIMIGLTLVFFVQITGYPNILFY [Q18Y] | 3.56
92 | TRIMIGLTLVFFVQITGSPNILFY [Q18S] | 3.39
93 | TRIMIGLTLVFFVQITGMPNILFY [Q18M] | 3.21
94 | TRIMIGLTLVFFVQITGWPNILFY [Q18W] | 3.71
